We go through six sequences from a protein production outcome set (Wang et al. 2014).

This data set can be described thus: label from the status in PepcDB records.

As for “MKMKLPLPKPSTKIAKKPQQLALLNQRLNQLSQQFKQALAQEDYQRAYECVHEVIHLVPDHRVAYMDLAYTALRLKRFDAAYQHYQKALELSEKNIDPNIYDGLTEVAYFLNQQEQVRHYGHLSLKTKQKQVASETMTALPHSAPPPISIESPEQNIIAFSLFGDQPRYCETAILNVIEARKIYPEWRCRFYVDESVPSSVLSRLQQHGAQLVLVSPEQQQISGLFWRFFVMDDPEVKRFLIRDADSLISMREREAVDEWLQSDRWFHVMRDYYSHTELILAGMWGGCTGIFHQIETSIRQYIASGRYLNERVIDQHFLRYCIWPTLQQSVITHDRYLFADNASRFPQDRDRQPDWRIQYQHVGMNESAATVSVTVNHPDAVRVKWVLLNQMKQIVCQYSAQVLSNRSIEIHLPENYVEKIRLKAWNLQIYPYEN”, the protein production entry is “failed”. For “MKMLNRLDLGVPCLRAGFAGEQAFFLAMDGRLHVQQGDQRRVVALHDGDVLSACAAPGQADAAAWLLSAGEDGRVMRAGAGEPDCVASVPNKWVTALAVAADGALAYASGRTVWLAGGGGEAAALPQERPVQALRFSHGGRWLAVAGYDGLALYDRQAGGEPQRLDWKGMPTRVAFSPDDRFVLVATRDAVLHGWRLDTLRHFRMVGYPRAVGSWSWLAGGQWLATDGSAGAVLWPFEGEEGPIGSTPLALGERPDGEVSAVACHPARPWVAVGYADGLMVLESTDGALRRILGQAGRDRVACLAWDRAGARLAYGTPSGACGVIQADTGEEG”, the protein production entry was “failed”.

Take “MKMTAKMRREFPTAFLLLFLVPVMIPVGEAVWLDVPPTGTKCVSEEIQSNVVVLADYLIISEDHEVMPTISVKVTSPYGNNLHNMENVTHGQFAFTTQESGNYLACFWADEKSHGNKNVSINIDWRTGIAAKDWASIAKKEKIEGVELEIRKLEGAVEAIHENILYLRNREADMRTMSEKTNSRVAWYSIMSLGVCIAVSGFQVLYLKQYFEKKKLI”: the protein production result is given as “failed”.

Turning to “MKNDDLLMQIMMLDFAVQDSALFIDTHPCDKEAMNYFNEAATRLKAAKKEYQKQGHALVNREVGAYQNDYLSAPWPWVGDHKCGCTKNVCNTL”, the protein production result is listed as “failed”.

With “MKNFNDEEHNSQLTDEVLPEPEDARVIANILKAVGVESFDTRVVAQLVEFVYKYIGEVLELSKTFAQYAEREDIRQDDVKLAISSLLSKSFTQPPSRDVLLQLCRERNAVPLPVVDTYVGIQLPPKEFQLTTRNYQLKRKTTTESVASQELSEATGNISIGESSLQPNEEESNTMNT”, the protein production result is “failed”.

In the case of “MKNGERARAGHGSPAAPGPTAGPGPAPAPGPTVVGREAEIAEIRSRIAADRSHSSVLIVEGDPGAGKSVLLDLAVRLTRGTGQRVLRAVGSESEASLAFAGLHQMLRPVLDDLGGLPARQRSALRTALGLAEDAEDAADTPDALLVGLAVLTLVSDLSEPAPLLVVVDDAQWIDRASLDVLSFLARRMAGEPVTLLMGVRAAAVLPGFDKGYERLEIGPLSGDAANRLLDEQPKRPTGRTRARILREAAGNPLALVELARATADREPEGSGVEGPLPVTDRLEGIFARHVRHLPEATRRALLLLAAADAADAPAAARGLPEAADTVWAPAERAGLVRQDGTGVSFRHPLVRSAVYHAAPFEQRRRAHLALARQLGEEPDRRAWHLAAAAVRPDEQVSAALRETAGRARRRGGHAAAAAALERAAELSPHRADQARLLADAADTAVFTGQLGWVEHLAAGARERSDDPALIGRAALATGRLLTLGPHHTAAFALLSRVADEAAATRSPRLLDALAAAAVVRYYSGEESQRQRIEALLADVPDSAAGGALRAWVLAVSDPSGAGASLAPALPRLIAAAKGEAGSLTALAVVAWLLDRTPLAARTFDEAFGRWQAHGPLPAGLACAAGWAYLEQGRWADARSVAAEIAEVASGAGLDHAEACARTLDATVLALLGEPAEARGSAERALALVAPLESRSVAVLARRALGLAAVAEGDYDSAYAQFRAAFTEDGDLVHYHVSPTVLAELAAAAVRRGHREPAARLLERSARHLGPGMSARLFLLVERGRALLAEPERAERHFRAALAGEAGEQWPFERAQTRLDYGEWLRRQRRVAEARPLLTGALDTFRRLGARPWIDRAKAELRAAGIEADAAAPGALTELSPQQQQIVRLAAHGLTNREIGERLFLSPRTVGSHLYRVFPKLGITARAQLRDLLDDALQATGSAQ”, the protein production entry is “failed”.
